Experiment [1] has as its system primary chicken embryonic fibroblasts (CEF). Put plainly: Proliferation of primary CEF in serum-free media / with supplements. The class given is cell-based. The settings on record: serum-free medium, or minimal medium plus supplement (EGF 5 ng/ml, PGE2 0.01 μM, GH 10 ng/ml). The procedure:
The CSIFs readily grow on tissue culture plastic in DMEM/F12 medium supplemented with 15% FBS, and 2 mM of […] (FIG. 2D). There are several serum-free medium formulations for the growth of human and mouse fibroblasts, including PCS-201-040 (ATCC) and […] To develop a serum-free medium that supports the culture of CEF and CS IF, the present inventor formulated a minimal medium composed of DMEM/F12 supplemented with 0.1 μM dexamethasone, 10 μg/ml insulin, 5.5 μg/ml transferrin, and 5 ng/ml selenium (ITS), 12 μM linoleic and 12 μM oleic acids, and 2 mM of […]. Cells were plated in FBS containing medium, and transferred to minimal medium after overnight attachment. Basal medium was supplemented with growth factors and hormones showing that while heparin and T3 had little effect of CSIF growth (data not shown), the addition of basic Fibroblast Growth Factor (bFGF, 10 ng/ml) was essential (FIGS. 3C and 3F), showing 20±2 hours doubling time (data not shown).

For another experiment, the system named is CSIF. Put plainly: Serum-free medium development: sulforhodamine B stain and protein content after 72 hours. The class given is cell-based, chicken. The settings on record: supplement added to minimal serum-free medium; bFGF 10 ng/ml, EGF 5 ng/ml, PGE2 0.01 μM, GH 10 ng/ml. The protocol:
FIGS. 3A-F depict the development and identification of serum-free medium for CSIF propagation. Shown are sulforhodamine B stain (FIGS. 3A-E) and protein content quantification (FIG. 3F) following 72 hours of culture with 15% serum (“FBS”), minimal serum-free medium (MIN) alone (FIG. 3B) or with 10 ng/ml basic Fibroblast Growth Factor (bFGF, FIG. 3C), 5 ng/ml Epidermal Growth Factor (EGF, FIG. 3D), 0.01 μM Prostaglandin E2 (PGE2, FIG. 3E), or 10 ng/ml Growth Hormone. Serum-free medium (SFM) contained MIN medium supplemented with bFGF (10 ng/ml), EGF (5 ng/ml), and PGE2 ([…]).
To develop a serum-free medium that supports the culture of CEF and CS IF, the present inventor formulated a minimal medium composed of DMEM/F12 supplemented with 0.1 μM dexamethasone, 10 μg/ml insulin, 5.5 μg/ml transferrin, and 5 ng/ml selenium (ITS), 12 μM linoleic and 12 μM oleic acids, and 2 mM of L-Analyl-L-Glutamine. Cells were plated in FBS containing medium, and transferred to minimal medium after overnight attachment. Basal medium was supplemented with growth factors and hormones showing that while heparin and T3 had little effect of CSIF growth (data not shown), the addition of basic Fibroblast Growth Factor (bFGF, 10 ng/ml) was essential (FIGS. 3C and 3F), showing 20±2 hours doubling time (data not shown).
In general terms: In SRB staining, fixed cells bind dye roughly in proportion to their protein.

The text below walks through data of US12325866B2, “Systems and methods for growing cells in vitro” (Yissum Research Development Company of the Hebrew …, priority 2016, dated 2025).

B1: EGF: epidermal growth factor (protein, UniProt P01133 23-1207, looked up)
Pro-epidermal growth factor: PQHWSCPEGTLAGNGNSTCVGPAPFLIFSHGNSIFRIDTEGTNYEQLVVDAGVSVIMDFHYNEKRIYWVDLERQLLQRVFLNGSRQERVCNIEKNVSGMAINWINEEVIWSNQQEGIITVTDMKGNNSHILLSALKYPANVAVDPVERFIFWSSEVAGSLYRADLDGVGVKALLETSEKITAVSLDVLDKRLFWIQYNREGSNSLICSCDYDGGSVHISKHPTQHNLFAMSLFGDRIFYSTWKMKTIWIANKHTGKDMVRINLHSSFVPLGELKVVHPLAQPKAEDDTWEPEQKLCKLRKGNCSSTVCGQDLQSHLCMCAEGYALSRDRKYCEDVNECAFWNHGCTLGCKNTPGSYYCTCPVGFVLLPDGKRCHQLVSCPRNVSECSHDCVLTSEGPLCFCPEGSVLERDGKTCSGCSSPDNGGCSQLCVPLSPVSWECDCFPGYDLQLDEKSCAASGPQPFLLFANSQDIRHMHFDGTDYGTLLSQQMGMVYALDHDPVENKIYFAHTALKWIERANMDGSQRERLIEEGVDVPEGLAVDWIGRRFYWTDRGKSLIGRSDLNGKRSKIITKENISQPRGIAVHPMAKRLFWTDTGINPRIESSSLQGLGRLVIASSDLIWPSGITIDFLTDKLYWCDAKQSVIEMANLDGSKRRRLTQNDVGHPFAVAVFEDYVWFSDWAMPSVMRVNKRTGKDRVRLQGSMLKPSSLVVVHPLAKPGADPCLYQNGGCEHICKKRLGTAWCSCREGFMKASDGKTCLALDGHQLLAGGEVDLKNQVTPLDILSKTRVSEDNITESQHMLVAEIMVSDQDDCAPVGCSMYARCISEGEDATCQCLKGFAGDGKLCSDIDECEMGVPVCPPASSKCINTEGGYVCRCSEGYQGDGIHCLDIDECQLGEHSCGENASCTNTEGGYTCMCAGRLSEPGLICPDSTPPPHLREDDHHYSVRNSDSECPLSHDGYCLHDGVCMYIEALDKYACNCVVGYIGERCQYRDLKWWELRHAGHGQQQKVIVVAVCVVVLVMLLLLSLWGAHYYRTQKLLSKNPKNPYEESSRDVRSRRPADTEDGMSSCPQPWFVVIKEHQDLKNGGQPVAGEDGQAADGSMQPTSWRQEPQLCGMGTEQGCWIPVSSDKGSCPQVMERSFHMPSYGTQTLEGGVEKPHSLLSANPLWQQRALDPPHQMELTQ
modifications: Pro-epidermal growth factor
For B1, the “Proliferation of primary CEF” value in experiment [1] is “supported the proliferation”. In addition, the “Effect on CSIF growth / proliferation” value with CSIF is recorded as “supported the proliferation”.
